Drawing on publication PMC4883682, this text covers stoichiometry N for 1 substance.

As a reminder, the stoichiometry N is the number of molecules, sites or subunits per partner or assembly.

In this test the target is C-terminally labeled STIM1(del302-448) (STIM1(del302-448)-AcGFP / STIM1(del302-448)-mApple) (human) (UniProt Q13586). Nature of the test: cross-linking; chemical crosslinking with dithiobis(succinymidyl propionate); constructs separately expressed; unstimulated state (Supplemental Figure S2).

As to “C-terminally labeled STIM1(del302-448) (STIM1(del302-448)-AcGFP / STIM1(del302-448)-mApple) (from UniProt Q13586 23-685) (natural protein)”, the stoichiometry N came to 2.
